Publication PMC3872205 (Journal of molecular biology, 2013)

Legend:
Assay in all cases: ITC
[1] = target: Rb^380-816∆PL/S780A, phosphorylated (UniProt P06400)
[2] = target: Rb^380-800∆PL/S780A, phosphorylated (UniProt P06400)
[3] = target: Rb^380-816∆PL/S780A with S788 and S795 substituted to alanine, unphosphorylated (UniProt P06400)
[4] = target: Rb^380-816∆PL/S780A, unphosphorylated (UniProt P06400)
[5] = target: Rb^380-800∆PL/S780A, unphosphorylated (UniProt P06400)
[6] = target: Rb^380-816∆PL/S780A with S788 and S795 substituted to alanine, phosphorylated (UniProt P06400)
[7] = target: Rb^380-794∆PL/S780A, phosphorylated (UniProt P06400)
[8] = target: Rb^380-794∆PL/S780A, unphosphorylated (UniProt P06400)
[9] = target: Rb^380-816∆PL/S780A with S807 and S811 substituted for alanine, phosphorylated (UniProt P06400)
[10] = target: Rb^53-800∆NL/∆PL/S780A, phosphorylated (UniProt P06400)
[11] = target: Rb construct phosphorylated at Rb^IDL (T356/T373) (construct of Table 2)
[12] = target: Rb construct phosphorylated at RbC^N (S788/S795) (construct of Table 2)
[13] = target: Rb construct phosphorylated at Rb^PL (S608/S612) (construct of Table 2)
[14] = target: T1, Rb^380-816/780A, unphosphorylated (UniProt P06400 380-816, 780A)
T1 sequence (looked up): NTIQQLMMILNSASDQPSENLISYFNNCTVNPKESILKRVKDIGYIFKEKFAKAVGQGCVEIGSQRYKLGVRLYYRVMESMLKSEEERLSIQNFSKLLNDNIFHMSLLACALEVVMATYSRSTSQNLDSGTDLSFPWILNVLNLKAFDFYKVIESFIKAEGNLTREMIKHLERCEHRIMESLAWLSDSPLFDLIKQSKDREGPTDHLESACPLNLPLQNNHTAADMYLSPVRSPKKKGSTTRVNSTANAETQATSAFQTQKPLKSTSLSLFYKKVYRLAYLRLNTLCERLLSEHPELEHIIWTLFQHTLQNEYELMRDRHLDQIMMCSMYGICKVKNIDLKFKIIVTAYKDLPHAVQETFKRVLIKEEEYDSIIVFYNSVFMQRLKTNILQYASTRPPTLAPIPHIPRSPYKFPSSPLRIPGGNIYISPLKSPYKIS

[15] = target: Rb^53-800∆NL/∆PL/S780A, unphosphorylated (UniProt P06400 53-800, S780A)
[16] = target: Rb^53-800∆NL/∆PL/S780A, phosphorylated (UniProt P06400 53-800, S780A, phosphorylated with Cdk; Rb^IDL (T356/T373) and RbC^N (S788/S795) sites)

“E2F1 transactivation domain (E2F1^TD, residues 372-437) (from UniProt Q01094 372-437) (domain or fragment)” gave a Kd [1] of 470 nM, a Kd [2] of 510 nM and a Kd [3] of 90 nM. For the same molecule, the Kd [4] was 70 nM, the Kd [5] was 50 nM and the Kd [6] was 130 nM. For the same molecule, the Kd [7] was 270 nM, the Kd [8] was 120 nM and the Kd [9] was 510 nM.

“E2F2 transactivation domain (E2F2^TD) (domain or fragment)” showed a fold reduction in binding affinity against the unphosphorylated construct [10] of 22 fold and a fold inhibition of binding against the unphosphorylated construct [11] of 2 fold.

With “E2F3 transactivation domain (E2F3^TD) (domain or fragment)” the fold rise of Kd against the unphosphorylated construct [12] was 10 fold, the fold rise of Kd against the unphosphorylated construct [13] was 9 fold and the fold inhibition of binding against the unphosphorylated construct [11] was 25 fold.

B1: E2F1 transactivation domain (E2F1^TD, residues 372-437) (domain or fragment, UniProt Q01094 372-437, looked up)
chain: DRLSPLVAADSLLEHVREDFSGLLPEEFISLSPPHEALDYHFGLEEGEGIRDLFDCDFGDLTPLDF
B1 was tested, and the Kd [14] was 70 nM, the Kd [15] was 130 nM and the Kd [16] was 30000 nM.
